The source of these data is US20170336415A1.

Experiment [1] concerns the target fucosylated haptoglobin (UniProt P00738). The experiment is described as follows: sandwich ELISA, 5 M urea minus no urea. For orientation: ELISA stands for enzyme-linked immunosorbent assay.
Experiment [2] shares this target. The experiment is described as follows: sandwich ELISA, fHP 200 ng/mL captured by anti-haptoglobin antibody, biotin-labeled lectin 1 µg/mL, 5 M urea.
For experiment [3] the target is unchanged. Put plainly: sandwich ELISA, 5 M urea against no urea.
Experiment [4] has the same target. The experiment is described as follows: sandwich ELISA, fHP 200 ng/mL captured by anti-haptoglobin antibody, biotin-labeled lectin 1 µg/mL, no urea.
Experiment [5] shares this target. Put plainly: sandwich ELISA as in Example 4, captured fHP, biotin-labeled NSL, no urea.
The target is the same in experiment [6]. The experiment is described as follows: sandwich ELISA as in Example 4, captured fHP, biotin-labeled NSL, 5 M urea.
For experiment [7] the target is unchanged. Put plainly: sandwich ELISA as in Example 4, captured fHP, biotin-labeled PTL, no urea.
Experiment [8] shares this target. The experiment is described as follows: sandwich ELISA as in Example 4, captured fHP, biotin-labeled PTL, 5 M urea.
In experiment [9] the target is α-fetoprotein L3 (UniProt P02771). The experiment is described as follows: direct adsorption ELISA, 5 M urea against no urea.
In experiment [10] the target is fucosylated haptoglobin (UniProt P00738). The experiment is described as follows: direct adsorption ELISA, 5 M urea against no urea.
Experiment [11] has the same target. The experiment is described as follows: direct adsorption ELISA, fHP immobilized, biotin-labeled PhoSL, 1.2 M thiourea.
The target is the same in experiment [12]. The experiment is described as follows: direct adsorption ELISA, fHP immobilized, biotin-labeled PhoSL 1 µg/mL, no urea.
For experiment [13] the target is unchanged. The experiment is described as follows: sandwich ELISA, wash with 1.2 M thiourea against wash without.
The target is the same in experiment [14]. The experiment is described as follows: sandwich ELISA as in Example 4, thiourea 0 to 1.5 M.
Experiment [15] addresses α-fetoprotein L3 (UniProt P02771). Put plainly: direct adsorption ELISA, 1.2 M thiourea against no thiourea.
Experiment [16] addresses fucosylated haptoglobin (UniProt P00738). The experiment is described as above.
Experiment [17] has the same target. Put plainly: sandwich ELISA as in Example 4 (biotin-labeled PhoSL), captured fHP washed with detergent liquid with 5 M urea, no urea in lectin solution.
Experiment [18] shares this target. The experiment is described as follows: sandwich ELISA as in Example 4 (biotin-labeled PhoSL), captured fHP washed with detergent liquid without urea or thiourea.
Experiment [19] has the same target. Put plainly: direct adsorption ELISA, fHP immobilized, biotin-labeled PhoSL, no thiourea.
Experiment [20] addresses α-fetoprotein L3 (UniProt P02771). The experiment is described as follows: direct adsorption ELISA, 5 M urea minus no urea.
In experiment [21] the target is fucosylated haptoglobin (UniProt P00738). Put plainly: direct adsorption ELISA, 5 M urea minus no urea.
Experiment [22] shares this target. Put plainly: sandwich ELISA as in Example 4 (biotin-labeled PhoSL), captured fHP washed with detergent liquid with 1.2 M thiourea, none in lectin solution.
Experiment [23] has the same target. Put plainly: sandwich ELISA as in Example 4, fHP 50 ng/mL, urea 0 to 9 M.
Experiment [24] has the same target. Put plainly: sandwich ELISA, wash with 5 M urea against wash without.
For experiment [25] the target is unchanged. The experiment is described as follows: direct adsorption ELISA, fHP immobilized, biotin-labeled PhoSL 1 µg/mL, 5 M urea.
The target is the same in experiment [26]. The experiment is described as follows: sandwich ELISA, wash with 1.2 M thiourea minus wash without.
The target is the same in experiment [27]. Put plainly: sandwich ELISA, wash with 5 M urea minus wash without.
The target of experiment [28] is α-fetoprotein L3 (UniProt P02771). The experiment is described as follows: direct adsorption ELISA, AFP-L3 immobilized, biotin-labeled PhoSL 1 µg/mL, 5 M urea.
The target is the same in experiment [29]. Put plainly: direct adsorption ELISA, AFP-L3 immobilized, biotin-labeled PhoSL, 1.2 M thiourea.
Experiment [30] has the same target. The experiment is described as follows: direct adsorption ELISA, AFP-L3 immobilized, biotin-labeled PhoSL, no thiourea.
Experiment [31] shares this target. Put plainly: direct adsorption ELISA, 1.2 M thiourea minus no thiourea.
Experiment [32] has as its target fucosylated haptoglobin (UniProt P00738). Described as above.
Experiment [33] addresses α-fetoprotein L3 (UniProt P02771). Put plainly: direct adsorption ELISA, AFP-L3 immobilized, biotin-labeled PhoSL 1 µg/mL, no urea.
The target of experiment [34] is fucosylated haptoglobin (UniProt P00738). The experiment is described as follows: magnetic bead assay: fHP 0.45 µg/mL mixed with recombinant lectin 5 µg/mL, captured on anti-haptoglobin antibody beads, HRP anti-FLAG detection, 5 M urea.
The target is the same in experiment [35]. Put plainly: magnetic bead assay: fHP 0.45 µg/mL mixed with recombinant lectin 5 µg/mL, captured on anti-haptoglobin antibody beads, HRP anti-FLAG detection, no urea.
The target is the same in experiment [36]. The experiment is described as follows: magnetic bead assay, 5 M urea minus no urea.
The target is the same in experiment [37]. Put plainly: magnetic bead assay, signal with fHP divided by signal without fHP, no urea.
Experiment [38] shares this target. The experiment is described as follows: magnetic bead assay, signal with fHP divided by signal without fHP, 5 M urea.
For experiment [39] the target is unchanged. The experiment is described as follows: magnetic bead assay, 5 M urea against no urea.
The target is the same in experiment [40]. Put plainly: sandwich ELISA as in Example 4, captured fHP, biotin-labeled AML, 5 M urea.
Experiment [41] shares this target. The experiment is described as follows: sandwich ELISA as in Example 4, captured fHP, biotin-labeled AML, no urea.

Sequence of fucosylated haptoglobin (P00738 19-406 limits assumed): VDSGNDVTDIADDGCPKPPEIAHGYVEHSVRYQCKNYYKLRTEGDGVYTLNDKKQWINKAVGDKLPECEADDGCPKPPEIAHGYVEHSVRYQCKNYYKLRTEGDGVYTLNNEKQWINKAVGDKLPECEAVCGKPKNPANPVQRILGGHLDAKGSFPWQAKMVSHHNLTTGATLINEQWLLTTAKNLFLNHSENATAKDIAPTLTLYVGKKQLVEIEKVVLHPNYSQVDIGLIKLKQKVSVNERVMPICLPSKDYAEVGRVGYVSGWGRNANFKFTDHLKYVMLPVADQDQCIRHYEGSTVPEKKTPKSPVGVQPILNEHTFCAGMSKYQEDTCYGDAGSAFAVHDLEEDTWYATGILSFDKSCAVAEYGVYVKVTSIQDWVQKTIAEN
Sequence of α-fetoprotein L3 (P02771 19-609 limits assumed): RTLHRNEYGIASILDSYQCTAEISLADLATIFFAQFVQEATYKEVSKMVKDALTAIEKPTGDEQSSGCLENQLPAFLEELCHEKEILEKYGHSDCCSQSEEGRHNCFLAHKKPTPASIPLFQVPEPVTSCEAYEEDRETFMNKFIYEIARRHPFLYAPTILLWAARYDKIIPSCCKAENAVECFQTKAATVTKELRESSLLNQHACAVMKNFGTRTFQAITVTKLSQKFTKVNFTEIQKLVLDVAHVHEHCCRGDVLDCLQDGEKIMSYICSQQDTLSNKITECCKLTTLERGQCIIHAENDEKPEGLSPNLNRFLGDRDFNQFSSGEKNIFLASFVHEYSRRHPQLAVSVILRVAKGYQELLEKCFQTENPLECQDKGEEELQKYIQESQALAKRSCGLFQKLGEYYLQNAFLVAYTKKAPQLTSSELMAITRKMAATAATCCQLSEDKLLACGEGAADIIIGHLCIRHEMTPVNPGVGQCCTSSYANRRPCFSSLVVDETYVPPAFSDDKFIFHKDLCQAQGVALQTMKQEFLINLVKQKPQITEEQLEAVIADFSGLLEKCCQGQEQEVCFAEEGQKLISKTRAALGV

In turn, “Stropharia rugosoannulata lectin (SRL), biotin-labeled” returned an Increased amount of signal (absorbance (450 nm - 630 nm)) in the experiment with fucosylated haptoglobin [1] of 0.433. For the same substance, in the experiment with fucosylated haptoglobin [2], the Reaction value (S - N)urea 5M (absorbance (450 nm - 630 nm)) came out at 0.863. Further, the Increased rate of signal in the experiment with fucosylated haptoglobin [3] was 2.01 fold. In the experiment with fucosylated haptoglobin [4], this substance had a Reaction value (S - N)urea 0M (absorbance (450 nm - 630 nm)) of 0.43.
“Naematoloma sublateritium lectin (NSL), biotin-labeled” registered an Increased amount of signal (absorbance (450 nm - 630 nm)) with fucosylated haptoglobin [1] of 0.922. Moreover, the Reaction value (S - N)urea 0M (absorbance (450 nm - 630 nm)) with fucosylated haptoglobin [5] is 0.423. This substance also showed a Reaction value (S - N)urea 5M (absorbance (450 nm - 630 nm)) with fucosylated haptoglobin [6] of 1.34. Further, in the experiment with fucosylated haptoglobin [3], the Increased rate of signal came to 3.18 fold.
In the experiment with fucosylated haptoglobin [1], “Pholiota terrestris lectin (PTL), biotin-labeled” gave an Increased amount of signal (absorbance (450 nm - 630 nm)) of 0.743. Moreover, the Reaction value (S - N)urea 0M (absorbance (450 nm - 630 nm)) in the experiment with fucosylated haptoglobin [7] is 0.542. This substance also came in with a Reaction value (S - N)urea 5M (absorbance (450 nm - 630 nm)) with fucosylated haptoglobin [8] of 1.28. The substance further displayed an Increased rate of signal with fucosylated haptoglobin [3] of 2.37 fold.
Take “Pholiota squarrosa lectin (PhoSL), biotin-labeled”: the Increased rate of signal in the experiment with α-fetoprotein L3 [9] was 16.5 fold; with fucosylated haptoglobin [10], 2.86 fold; with fucosylated haptoglobin [13] it was 1.67 fold; with α-fetoprotein L3 [15], 39 fold; with fucosylated haptoglobin [16] it was 2.89 fold; with fucosylated haptoglobin [3], 3 fold. Further, the Increased rate of signal in the experiment with fucosylated haptoglobin [24] worked out at 1.84 fold. For the same substance, the Increased amount of signal (absorbance (450 nm - 630 nm)) with fucosylated haptoglobin [1] was 0.531; in the experiment with α-fetoprotein L3 [20], 0.124; with fucosylated haptoglobin [21], 0.471; with fucosylated haptoglobin [26], 0.364; with fucosylated haptoglobin [27], 0.457; with α-fetoprotein L3 [31], 0.114. In addition, the Increased amount of signal (absorbance (450 nm - 630 nm)) with fucosylated haptoglobin [32] was determined as 0.681. The Reaction value (S - N)thiourea 1.2M (absorbance (450 nm - 630 nm)) with fucosylated haptoglobin [11] is 1.04; with fucosylated haptoglobin [22] it was 0.909; with α-fetoprotein L3 [29], 0.117. The results for the Reaction value (S - N)urea 0M (absorbance (450 nm - 630 nm)) with fucosylated haptoglobin [12], with α-fetoprotein L3 [33] and with fucosylated haptoglobin [4] were 0.253, 0.008 and 0.265, respectively. The substance also gave an increased rate of the signals against no thiourea with fucosylated haptoglobin [14] of 1.2 to 4.1 times. The Reaction value (S - N)urea 5M (absorbance (450 nm - 630 nm)) is 0.796 with fucosylated haptoglobin [2], 1 with fucosylated haptoglobin [17], 0.724 in the experiment with fucosylated haptoglobin [25] and 0.132 with α-fetoprotein L3 [28]. Moreover, the Reaction value (S - N)0M (absorbance (450 nm - 630 nm)) in the experiment with fucosylated haptoglobin [18] stood at 0.545. Also, the results for the Reaction value (S - N)thiourea 0M (absorbance (450 nm - 630 nm)) with fucosylated haptoglobin [19] and with α-fetoprotein L3 [30] were 0.36 and 0.003, respectively. The increased rate of the signals against no urea with fucosylated haptoglobin [23] lay in the range of 1.2 to 2.8 times.
As for “Biotin-labeled Aleuria aurantia lectin (from UniProt P18891 2-313)”, the Increased amount of signal (absorbance (450 nm - 630 nm)) with fucosylated haptoglobin [1] is -0.103. The substance also had a Reaction value (S - N)urea 5M (absorbance (450 nm - 630 nm)) in the experiment with fucosylated haptoglobin [2] of 0.774. In addition, the Increased rate of signal with fucosylated haptoglobin [3] was 0.88 fold. Also, the Reaction value (S - N)urea 0M (absorbance (450 nm - 630 nm)) in the experiment with fucosylated haptoglobin [4] was 0.877.
In the case of PhoSL recombinant lectin, the Reaction value (S - N)urea 5M (absorbance (450 nm - 630 nm)) in the experiment with fucosylated haptoglobin [34] worked out at 0.708. For the same substance, in the experiment with fucosylated haptoglobin [35], the Reaction value (S - N)urea 0M (absorbance (450 nm - 630 nm)) stood at 0.455. In the experiment with fucosylated haptoglobin [36], this substance had an Increased amount of signal (absorbance (450 nm - 630 nm)) of 0.253. The Reaction value (S/N)urea 0M with fucosylated haptoglobin [37] was 6.83. In the experiment with fucosylated haptoglobin [38], the Reaction value (S/N)urea 5M amounted to 26.3. This substance showed an Increased rate of signal with fucosylated haptoglobin [39] of 1.56 fold.
PhoSL peptide, biotin-labeled registered an Increased amount of signal (absorbance (450 nm - 630 nm)) in the experiment with fucosylated haptoglobin [1] of 0.052. In the experiment with fucosylated haptoglobin [2], this substance registered a Reaction value (S - N)urea 5M (absorbance (450 nm - 630 nm)) of 0.214. Besides, in the experiment with fucosylated haptoglobin [3], the Increased rate of signal turned out to be 1.32 fold. In addition, in the experiment with fucosylated haptoglobin [4], the Reaction value (S - N)urea 0M (absorbance (450 nm - 630 nm)) amounted to 0.162.
“Amanita muscaria lectin (AML), biotin-labeled” had an Increased amount of signal (absorbance (450 nm - 630 nm)) with fucosylated haptoglobin [1] of 0.521. The substance also showed a Reaction value (S - N)urea 5M (absorbance (450 nm - 630 nm)) in the experiment with fucosylated haptoglobin [40] of 0.548. In the experiment with fucosylated haptoglobin [41], this substance registered a Reaction value (S - N)urea 0M (absorbance (450 nm - 630 nm)) of 0.027. In the experiment with fucosylated haptoglobin [3], this substance yielded an Increased rate of signal of 20.3 fold.
